Starred links: 1 amine or outer side, 2 acyl side, 3 side chain; linkers in the order of their positions; H or OH if unused. Non-standard residues stand in square brackets, D forms with d. Groups on a side chain read outwards from the residue. No end group written: not given here. *: point of attachment. β‑dimethylGln = β-dimethylglutamine, CC(C)(CC(N)=O)[C@H](N[*:1])C(=O)[*:2]; C20 diacid = O=C(O)CCCCCCCCCCCCCCCCCCC(=O)*; C18 diacid = O=C(O)CCCCCCCCCCCCCCCCC(=O)*; γGlu = O=C(O)[C@H](CCC(=O)[*:2])N[*:1]; αMeF = C[C@](N)(Cc1ccccc1)C(=O)O; NMeQ = CN[C@@H](CCC(N)=O)C(=O)O; AEEA = NCCOCCOCC(=O)O; Aib = CC(C)(N)C(=O)O
B1: Peptide 318 (peptide)
peptide: H[Aib]QGTFTSDVSK[αMeF]LDSRAAK([AEEA-AEEA-γGlu-C18 diacid])DFVQWIANT-NH2
modifications: not fully specified
B2: Peptide 296 (peptide)
peptide: H[Aib]HGS[αMeF]TSDVSK[Aib]LDSRAAK([AEEA-AEEA-γGlu-C18 diacid])D[αMeF]VQ[Aib]IANT-NH2
modifications: N-terminus assumed
SMILES: CC[C@H](C)[C@H](NC(=O)C(C)(C)NC(=O)[C@H](CCC(N)=O)NC(=O)[C@@H](NC(=O)[C@](C)(Cc1ccccc1)NC(=O)[C@H](CC(=O)O)NC(=O)[C@H](CCCCNC(=O)COCCOCCNC(=O)COCCOCCNC(=O)CC[C@H](NC(=O)CCCCCCCCCCCCCCCCC(=O)O)C(=O)O)NC(=O)[C@H](C)NC(=O)[C@H](C)NC(=O)[C@H](CCCNC(=N)N)NC(=O)[C@H](CO)NC(=O)[C@H](CC(=O)O)NC(=O)[C@H](CC(C)C)NC(=O)C(C)(C)NC(=O)[C@H](CCCCN)NC(=O)[C@H](CO)NC(=O)[C@@H](NC(=O)[C@H](CC(=O)O)NC(=O)[C@H](CO)NC(=O)[C@@H](NC(=O)[C@](C)(Cc1ccccc1)NC(=O)[C@H](CO)NC(=O)CNC(=O)[C@H](Cc1c[nH]cn1)NC(=O)C(C)(C)NC(=O)[C@@H](N)Cc1c[nH]cn1)[C@@H](C)O)C(C)C)C(C)C)C(=O)N[C@@H](C)C(=O)N[C@@H](CC(N)=O)C(=O)N[C@H](C(N)=O)[C@@H](C)O
B3: Peptide 315 (peptide)
peptide: H[Aib]QGTFTSDVSK[αMeF]LDSRAAK([AEEA-AEEA-γGlu-C18 diacid])DFVQ[Aib]LVAT-NH2
modifications: not fully specified
B4: Peptide 288 (peptide)
peptide: H[Aib]HGS[αMeF]TSDVSK[αMeF]LDSRAAK([AEEA-AEEA-γGlu-C18 diacid])D[αMeF]VQWIANT-NH2
modifications: not fully specified; also: F22: αMePhe per table
B5: Peptide 287 (peptide)
peptide: H[Aib]HGS[αMeF]TSDVSK[αMeF]LDSRAAK([AEEA-AEEA-γGlu-C18 diacid])DFVQ[Aib]IANT-NH2
modifications: not fully specified; also: Y13: αMePhe per table
B6: Peptide 286 (peptide)
peptide: H[Aib]HGS[αMeF]TSDVSKYLDSRAAK([AEEA-AEEA-γGlu-C18 diacid])D[αMeF]VQ[Aib]IANT-NH2
modifications: also: F6: αMePhe per table, X13: αMePhe, Y per table
B7: Peptide 298 (peptide)
peptide: H[Aib]HGS[αMeF]TSDVSR[αMeF]LDSRAAK([AEEA-AEEA-γGlu-γGlu-C20 diacid])D[αMeF]VQ[Aib]IANT-NH2
modifications: N-terminus assumed
SMILES: CC[C@H](C)[C@H](NC(=O)C(C)(C)NC(=O)[C@H](CCC(N)=O)NC(=O)[C@@H](NC(=O)[C@](C)(Cc1ccccc1)NC(=O)[C@H](CC(=O)O)NC(=O)[C@H](CCCCNC(=O)COCCOCCNC(=O)COCCOCCNC(=O)CC[C@H](NC(=O)CC[C@H](NC(=O)CCCCCCCCCCCCCCCCCCC(=O)O)C(=O)O)C(=O)O)NC(=O)[C@H](C)NC(=O)[C@H](C)NC(=O)[C@H](CCCNC(=N)N)NC(=O)[C@H](CO)NC(=O)[C@H](CC(=O)O)NC(=O)[C@H](CC(C)C)NC(=O)[C@](C)(Cc1ccccc1)NC(=O)[C@H](CCCNC(=N)N)NC(=O)[C@H](CO)NC(=O)[C@@H](NC(=O)[C@H](CC(=O)O)NC(=O)[C@H](CO)NC(=O)[C@@H](NC(=O)[C@](C)(Cc1ccccc1)NC(=O)[C@H](CO)NC(=O)CNC(=O)[C@H](Cc1c[nH]cn1)NC(=O)C(C)(C)NC(=O)[C@@H](N)Cc1c[nH]cn1)[C@@H](C)O)C(C)C)C(C)C)C(=O)N[C@@H](C)C(=O)N[C@@H](CC(N)=O)C(=O)N[C@H](C(N)=O)[C@@H](C)O
B8: Peptide 305 (peptide)
peptide: H[Aib]HGS[αMeF]TSDVSK[αMeF]LDSRAAK([AEEA-AEEA-γGlu-γGlu-C20 diacid])D[αMeF]VQ[Aib]IANT-NH2
modifications: not fully specified
B9: Peptide 322 (peptide)
peptide: H[Aib]QGS[αMeF]TSDVSK[αMeF]LDSRAAK([AEEA-AEEA-γGlu-γGlu-C20 diacid])D[αMeF]VQ[Aib]IANT-NH2
B10: Peptide 292 (peptide)
peptide: H[Aib]HGS[αMeF]TSDVSKYLDSRAAKDFVQWIANT-NH2
modifications: not fully specified (residue 20); also: F6: αMePhe per table
B11: Peptide 285 (peptide)
peptide: HSHGS[αMeF]TSDVSK[αMeF]LDSRAAK([AEEA-AEEA-γGlu-C18 diacid])D[αMeF]VQ[Aib]IANT-NH2
modifications: not fully specified; also: S2: Aib per table
B12: Peptide 304 (peptide)
peptide: H[Aib]HGS[αMeF]TSDVSK[αMeF]LDSRAAK([AEEA-AEEA-γGlu-γGlu-C20 diacid])D[αMeF]VQ[Aib]IANT-OH
B13: Peptide 283 (peptide)
peptide: H[Aib]HGS[αMeF]TSDVSKYLDSRAAK([AEEA-AEEA-γGlu-γGlu-C20 diacid])D[αMeF]VQ[Aib]IANT-NH2
modifications: also: F6: αMePhe per table, X13: αMePhe, Y per table
B14: Peptide 325 (peptide)
peptide: HS[NMeQ]GS[αMeF]TSDVSK[αMeF]LDSRAAK([AEEA-AEEA-γGlu-C18 diacid])D[αMeF]VQ[Aib]IANT-NH2
modifications: N-terminus assumed
SMILES: CC[C@H](C)[C@H](NC(=O)C(C)(C)NC(=O)[C@H](CCC(N)=O)NC(=O)[C@@H](NC(=O)[C@](C)(Cc1ccccc1)NC(=O)[C@H](CC(=O)O)NC(=O)[C@H](CCCCNC(=O)COCCOCCNC(=O)COCCOCCNC(=O)CC[C@H](NC(=O)CCCCCCCCCCCCCCCCC(=O)O)C(=O)O)NC(=O)[C@H](C)NC(=O)[C@H](C)NC(=O)[C@H](CCCNC(=N)N)NC(=O)[C@H](CO)NC(=O)[C@H](CC(=O)O)NC(=O)[C@H](CC(C)C)NC(=O)[C@](C)(Cc1ccccc1)NC(=O)[C@H](CCCCN)NC(=O)[C@H](CO)NC(=O)[C@@H](NC(=O)[C@H](CC(=O)O)NC(=O)[C@H](CO)NC(=O)[C@@H](NC(=O)[C@](C)(Cc1ccccc1)NC(=O)[C@H](CO)NC(=O)CNC(=O)[C@H](CCC(N)=O)N(C)C(=O)[C@H](CO)NC(=O)[C@@H](N)Cc1c[nH]cn1)[C@@H](C)O)C(C)C)C(C)C)C(=O)N[C@@H](C)C(=O)N[C@@H](CC(N)=O)C(=O)N[C@H](C(N)=O)[C@@H](C)O
B15: Peptide 300 (peptide)
peptide: H[Aib]HGS[αMeF]TSDVSK[αMeF]LDSRAAK([AEEA-AEEA-γGlu-C18 diacid])D[αMeF]VQ[Aib]IAET-NH2
modifications: N-terminus assumed
SMILES: CC[C@H](C)[C@H](NC(=O)C(C)(C)NC(=O)[C@H](CCC(N)=O)NC(=O)[C@@H](NC(=O)[C@](C)(Cc1ccccc1)NC(=O)[C@H](CC(=O)O)NC(=O)[C@H](CCCCNC(=O)COCCOCCNC(=O)COCCOCCNC(=O)CC[C@H](NC(=O)CCCCCCCCCCCCCCCCC(=O)O)C(=O)O)NC(=O)[C@H](C)NC(=O)[C@H](C)NC(=O)[C@H](CCCNC(=N)N)NC(=O)[C@H](CO)NC(=O)[C@H](CC(=O)O)NC(=O)[C@H](CC(C)C)NC(=O)[C@](C)(Cc1ccccc1)NC(=O)[C@H](CCCCN)NC(=O)[C@H](CO)NC(=O)[C@@H](NC(=O)[C@H](CC(=O)O)NC(=O)[C@H](CO)NC(=O)[C@@H](NC(=O)[C@](C)(Cc1ccccc1)NC(=O)[C@H](CO)NC(=O)CNC(=O)[C@H](Cc1c[nH]cn1)NC(=O)C(C)(C)NC(=O)[C@@H](N)Cc1c[nH]cn1)[C@@H](C)O)C(C)C)C(C)C)C(=O)N[C@@H](C)C(=O)N[C@@H](CCC(=O)O)C(=O)N[C@H](C(N)=O)[C@@H](C)O
B16: Peptide 302 (peptide)
peptide: H[Aib]HGS[αMeF]TSDVSK[αMeF]LDSRAAK([AEEA-AEEA-γGlu-γGlu-C20 diacid])D[αMeF]IA[Aib]IAET-NH2
B17: Peptide 324 (peptide)
peptide: HS[β‑dimethylGln]GS[αMeF]TSDVSK[αMeF]LDSRAAK([AEEA-AEEA-γGlu-C18 diacid])D[αMeF]VQ[Aib]IANT-NH2
modifications: N-terminus assumed
SMILES: CC[C@H](C)[C@H](NC(=O)C(C)(C)NC(=O)[C@H](CCC(N)=O)NC(=O)[C@@H](NC(=O)[C@](C)(Cc1ccccc1)NC(=O)[C@H](CC(=O)O)NC(=O)[C@H](CCCCNC(=O)COCCOCCNC(=O)COCCOCCNC(=O)CC[C@H](NC(=O)CCCCCCCCCCCCCCCCC(=O)O)C(=O)O)NC(=O)[C@H](C)NC(=O)[C@H](C)NC(=O)[C@H](CCCNC(=N)N)NC(=O)[C@H](CO)NC(=O)[C@H](CC(=O)O)NC(=O)[C@H](CC(C)C)NC(=O)[C@](C)(Cc1ccccc1)NC(=O)[C@H](CCCCN)NC(=O)[C@H](CO)NC(=O)[C@@H](NC(=O)[C@H](CC(=O)O)NC(=O)[C@H](CO)NC(=O)[C@@H](NC(=O)[C@](C)(Cc1ccccc1)NC(=O)[C@H](CO)NC(=O)CNC(=O)[C@@H](NC(=O)[C@H](CO)NC(=O)[C@@H](N)Cc1c[nH]cn1)C(C)(C)CC(N)=O)[C@@H](C)O)C(C)C)C(C)C)C(=O)N[C@@H](C)C(=O)N[C@@H](CC(N)=O)C(=O)N[C@H](C(N)=O)[C@@H](C)O

Columns and labels:
human GLP-1 receptor = human GLP-1 receptor (human, UniProt P43220 24-463); assay: cell-based or functional assay
human glucagon receptor = human glucagon receptor (human, UniProt P47871 26-477); assay: cell-based or functional assay
Chain of human glucagon receptor (P47871 26-477): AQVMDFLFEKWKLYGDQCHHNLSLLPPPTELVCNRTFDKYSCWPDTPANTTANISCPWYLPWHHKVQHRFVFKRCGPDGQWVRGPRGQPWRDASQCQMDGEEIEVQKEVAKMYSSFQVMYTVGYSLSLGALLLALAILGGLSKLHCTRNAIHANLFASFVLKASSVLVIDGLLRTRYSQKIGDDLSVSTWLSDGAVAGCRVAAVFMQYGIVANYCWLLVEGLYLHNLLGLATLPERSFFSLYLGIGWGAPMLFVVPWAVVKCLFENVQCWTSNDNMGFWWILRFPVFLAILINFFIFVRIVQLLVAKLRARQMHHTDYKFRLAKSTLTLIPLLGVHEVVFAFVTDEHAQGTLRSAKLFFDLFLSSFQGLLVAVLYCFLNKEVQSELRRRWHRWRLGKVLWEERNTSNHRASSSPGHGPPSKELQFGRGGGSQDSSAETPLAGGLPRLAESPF

Binder	hGLP-1R EC50 (pM), cAMP (human GLP-1 receptor) [pM]	hGluc-R EC50 (pM), cAMP (human glucagon receptor) [pM]
B1	55.2	12000
B2	64.1	3250
B3	18.1	5850
B4	42.7	26.9
B5	27.5	26.5
B6	31.6	53
B7	75.5	573
B8	211	155
B9	68.3	> 24700
B10	28.7	20.4
B11	301	87
B12	239	687
B13	129	552
B14	929	> 25500
B15	19.7	18.4
B16	151	271
B17	1330	1930

From patent US20230357348A1 (AstraZeneca / MedImmune, published 2023)
